Blank lines part the entries; values can stand above or below the substance they belong to.
Experiments:
[1] = molecular target: human αvβ3 protein (CHEMICON), soluble (human) (UniProt P06756); assay: cell-based or functional assay
[2] = molecular target: αvβ3 integrin on C-PAE cells (bovine) (UniProt P80746); assay: C-PAE attachment to Tum-2-coated plates; the blocked ligand is Tum-2
[3] = molecular target: αvβ3 integrin on HUVEC cells (human) (UniProt P06756); assay: HUVEC attachment to Tumstatin-coated plates (10 µg/ml); 10 µg/ml antibody, against control IgG; the blocked ligand is Tumstatin
Chain of αvβ3 integrin on HUVEC cells (human) (P06756 31-1048, chain 1 of 2): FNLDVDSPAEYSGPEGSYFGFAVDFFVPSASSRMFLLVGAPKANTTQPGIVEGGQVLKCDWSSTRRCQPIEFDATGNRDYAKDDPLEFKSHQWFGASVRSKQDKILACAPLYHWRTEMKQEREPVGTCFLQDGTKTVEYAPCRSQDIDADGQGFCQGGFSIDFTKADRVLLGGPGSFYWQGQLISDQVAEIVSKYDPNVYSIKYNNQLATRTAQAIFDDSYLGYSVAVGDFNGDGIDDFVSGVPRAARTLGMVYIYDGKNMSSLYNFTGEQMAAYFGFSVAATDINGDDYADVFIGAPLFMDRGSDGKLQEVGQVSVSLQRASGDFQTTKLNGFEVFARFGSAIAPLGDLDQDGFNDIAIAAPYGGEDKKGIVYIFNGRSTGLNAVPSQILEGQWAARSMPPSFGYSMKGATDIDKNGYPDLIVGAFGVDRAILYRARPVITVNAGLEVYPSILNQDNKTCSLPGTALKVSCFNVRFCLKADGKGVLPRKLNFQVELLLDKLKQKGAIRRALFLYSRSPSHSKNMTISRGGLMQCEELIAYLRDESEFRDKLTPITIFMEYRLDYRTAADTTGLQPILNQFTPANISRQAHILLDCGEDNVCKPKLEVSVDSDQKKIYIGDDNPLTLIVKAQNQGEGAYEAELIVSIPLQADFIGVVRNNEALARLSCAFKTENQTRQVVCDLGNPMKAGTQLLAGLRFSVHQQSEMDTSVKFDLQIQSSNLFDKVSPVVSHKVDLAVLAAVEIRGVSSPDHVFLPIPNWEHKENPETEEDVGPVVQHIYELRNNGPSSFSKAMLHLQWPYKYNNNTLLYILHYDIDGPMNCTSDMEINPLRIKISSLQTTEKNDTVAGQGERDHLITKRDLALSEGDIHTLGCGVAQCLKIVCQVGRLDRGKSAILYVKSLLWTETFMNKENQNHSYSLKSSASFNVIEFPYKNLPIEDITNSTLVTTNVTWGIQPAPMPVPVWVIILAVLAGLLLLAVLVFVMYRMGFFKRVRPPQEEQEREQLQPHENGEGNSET
Chain of αvβ3 integrin on HUVEC cells (human) (P05106 27-788, chain 2 of 2, further chain): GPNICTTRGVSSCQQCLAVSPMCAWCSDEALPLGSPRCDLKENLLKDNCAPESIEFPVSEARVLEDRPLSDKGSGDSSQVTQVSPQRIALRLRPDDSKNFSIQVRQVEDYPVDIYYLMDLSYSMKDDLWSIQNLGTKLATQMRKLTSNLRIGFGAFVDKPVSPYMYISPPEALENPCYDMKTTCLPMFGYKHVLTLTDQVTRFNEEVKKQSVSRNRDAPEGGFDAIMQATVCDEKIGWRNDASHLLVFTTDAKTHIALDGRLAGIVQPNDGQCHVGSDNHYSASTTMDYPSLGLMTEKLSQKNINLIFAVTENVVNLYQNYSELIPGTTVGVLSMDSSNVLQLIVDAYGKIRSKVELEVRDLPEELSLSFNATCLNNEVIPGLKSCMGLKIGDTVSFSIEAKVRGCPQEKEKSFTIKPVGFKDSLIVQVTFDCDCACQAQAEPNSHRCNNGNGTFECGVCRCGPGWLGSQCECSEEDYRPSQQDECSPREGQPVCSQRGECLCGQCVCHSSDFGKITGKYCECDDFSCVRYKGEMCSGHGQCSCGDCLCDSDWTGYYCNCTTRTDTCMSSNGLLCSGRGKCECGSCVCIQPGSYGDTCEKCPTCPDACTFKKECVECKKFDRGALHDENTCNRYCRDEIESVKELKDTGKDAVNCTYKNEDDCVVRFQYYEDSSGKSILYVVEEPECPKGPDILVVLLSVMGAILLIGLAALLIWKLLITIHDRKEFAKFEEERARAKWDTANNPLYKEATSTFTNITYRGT

[4] = molecular target: αvβ3 integrin on HUVEC cells (human) (UniProt P06756); assay: HUVEC attachment to Tumstatin-coated plates; αvβ3 antibody used TOGETHER with β1 antibody; the blocked ligand is Tumstatin
[5] = molecular target: αvβ3 integrin on HUVEC cells (human) (UniProt P06756); assay: HUVEC binding to vitronectin-coated plates; 10 µg/ml antibody; the blocked ligand is vitronectin
[6] = molecular target: αvβ3 integrin on HUVEC cells (human) (UniProt P06756); assay: HUVEC adhesion to collagen Type IV-coated wells (10 µg/ml); 10 µg/ml antibody; the blocked ligand is type IV collagen
[7] = molecular target: αvβ3 integrin on C-PAE cells (bovine) (UniProt P80746); assay: C-PAE attachment to Tum-1-coated plates; the blocked ligand is Tum-1
[8] = molecular target: αvβ3 integrin on C-PAE cells (bovine) (UniProt P80746); assay: C-PAE attachment to Tum-4-coated plates; the blocked ligand is Tum-4
[9] = molecular target: αvβ3 integrin on HUVEC cells (human) (UniProt P06756); assay: HUVEC attachment to plates coated with E. coli-expressed Tumstatin-44-131 (10 µg/ml); 10 µg/ml antibody; the blocked ligand is Tumstatin-44-131
[10] = molecular target: integrin β1 subunit on HUVEC cells (human) (UniProt P05556); assay: HUVEC adhesion to Arresten-coated wells (10 µg/ml); cells pre-mixed with 10 µg/ml antibody; the blocked ligand is Arresten
Chain of integrin β1 subunit on HUVEC cells (human) (P05556 21-798): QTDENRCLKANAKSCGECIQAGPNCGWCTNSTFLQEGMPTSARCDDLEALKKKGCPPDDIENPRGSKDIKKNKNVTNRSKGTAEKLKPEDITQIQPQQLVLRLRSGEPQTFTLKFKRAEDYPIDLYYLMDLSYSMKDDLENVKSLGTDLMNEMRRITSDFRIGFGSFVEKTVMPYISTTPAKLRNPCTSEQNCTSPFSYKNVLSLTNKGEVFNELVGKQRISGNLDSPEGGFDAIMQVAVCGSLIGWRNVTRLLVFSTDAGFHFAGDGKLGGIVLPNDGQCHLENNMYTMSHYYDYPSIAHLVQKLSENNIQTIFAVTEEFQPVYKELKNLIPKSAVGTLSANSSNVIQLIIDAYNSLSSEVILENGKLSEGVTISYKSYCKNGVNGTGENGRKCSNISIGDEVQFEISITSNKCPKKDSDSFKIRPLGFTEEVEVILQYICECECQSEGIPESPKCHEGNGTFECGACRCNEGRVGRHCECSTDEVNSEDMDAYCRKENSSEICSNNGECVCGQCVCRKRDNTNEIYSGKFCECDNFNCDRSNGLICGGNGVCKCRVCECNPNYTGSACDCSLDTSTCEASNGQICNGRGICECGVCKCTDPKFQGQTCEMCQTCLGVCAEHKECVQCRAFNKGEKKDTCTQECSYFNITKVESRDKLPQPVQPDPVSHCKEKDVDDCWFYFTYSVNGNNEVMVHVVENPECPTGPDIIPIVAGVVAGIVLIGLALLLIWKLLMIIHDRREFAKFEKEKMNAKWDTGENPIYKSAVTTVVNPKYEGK

[11] = molecular target: integrin β1 subunit on HUVEC cells (human) (UniProt P05556); assay: HUVEC attachment to Tumstatin-coated plates (10 µg/ml); 10 µg/ml antibody, against control IgG; the blocked ligand is Tumstatin
[12] = molecular target: integrin β1 subunit on HUVEC cells (human) (UniProt P05556); assay: HUVEC adhesion to collagen Type IV-coated wells (10 µg/ml); 10 µg/ml antibody; the blocked ligand is type IV collagen
[13] = molecular target: integrin β1 subunit on HUVEC cells (human) (UniProt P05556); assay: HUVEC binding to type IV collagen-coated plates; 10 µg/ml antibody, against control IgG; the blocked ligand is type IV collagen
[14] = molecular target: integrin β1 subunit on HUVEC cells (human) (UniProt P05556); assay: HUVEC attachment to plates coated with E. coli-expressed Tumstatin-44-131 (10 µg/ml); 10 µg/ml antibody; the blocked ligand is Tumstatin-44-131

Chain of αvβ3 integrin on C-PAE cells (bovine) (P80746 31-1048): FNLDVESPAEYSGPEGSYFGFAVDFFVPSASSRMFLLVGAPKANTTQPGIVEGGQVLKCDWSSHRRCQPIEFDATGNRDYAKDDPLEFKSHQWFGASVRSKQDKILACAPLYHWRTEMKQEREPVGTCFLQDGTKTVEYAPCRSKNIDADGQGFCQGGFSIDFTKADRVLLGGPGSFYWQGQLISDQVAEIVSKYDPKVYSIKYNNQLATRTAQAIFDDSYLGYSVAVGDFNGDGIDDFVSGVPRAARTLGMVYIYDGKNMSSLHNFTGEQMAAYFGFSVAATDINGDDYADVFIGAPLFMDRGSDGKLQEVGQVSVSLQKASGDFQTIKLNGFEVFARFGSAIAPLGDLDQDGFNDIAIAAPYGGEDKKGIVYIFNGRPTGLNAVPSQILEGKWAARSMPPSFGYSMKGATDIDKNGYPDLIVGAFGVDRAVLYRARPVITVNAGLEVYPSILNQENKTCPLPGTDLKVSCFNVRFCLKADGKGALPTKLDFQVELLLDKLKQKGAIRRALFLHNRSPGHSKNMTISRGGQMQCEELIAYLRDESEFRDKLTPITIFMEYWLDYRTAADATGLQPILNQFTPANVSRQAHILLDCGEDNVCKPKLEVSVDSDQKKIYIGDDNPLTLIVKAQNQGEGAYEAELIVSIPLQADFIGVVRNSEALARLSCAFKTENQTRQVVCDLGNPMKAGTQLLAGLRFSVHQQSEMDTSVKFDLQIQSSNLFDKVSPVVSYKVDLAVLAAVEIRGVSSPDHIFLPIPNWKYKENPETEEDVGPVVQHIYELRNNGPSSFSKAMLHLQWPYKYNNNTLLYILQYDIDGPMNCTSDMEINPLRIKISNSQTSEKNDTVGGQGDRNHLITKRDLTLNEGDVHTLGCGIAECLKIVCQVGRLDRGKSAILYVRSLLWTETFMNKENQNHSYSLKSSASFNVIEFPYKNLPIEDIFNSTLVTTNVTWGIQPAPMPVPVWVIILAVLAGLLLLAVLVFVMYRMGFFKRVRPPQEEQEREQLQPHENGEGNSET

- recovery of Tum-2's anti-proliferative effect on C-PAE cells after pre-incubation with αvβ3 protein (methylene blue) [1]: 74.1%
Substance: Tum-2 (from UniProt Q01955 1427-1558) (ligand)

- recovery of the Tum-4-induced anti-proliferative effect on WM-164 melanoma cells after pre-incubation with αvβ3 protein (methylene blue) [1]: 76.7%
Substance: Tum-4 (from UniProt Q01955 1607-1670) (ligand)

- % inhibition of cell attachment [2]: 69.8%
- % inhibition of cell attachment [3]: 80%
- % inhibition of cell attachment [4]: 91%
- % inhibition of cell binding [5]: 61%
- % inhibition of cell adhesion [6]: 15%
- % inhibition of cell attachment [7]: 55.9%
- % inhibition of cell attachment [8]: 62.6%
- % inhibition of cell attachment [9]: 47.1%
Substance: monoclonal antibody to αvβ3 integrin (clone LM609, CHEMICON)

- % inhibition of cell adhesion [10]: 70%
- % inhibition of cell attachment [11]: 54%
- % inhibition of cell adhesion [12]: 40%
- % inhibition of cell binding [13]: 53%
- % inhibition of cell attachment [14]: 47.5%
Substance: mouse monoclonal antibody to the human β1 integrin subunit (clone P4C10)

Source: patent US20090054344A1
